Assays:
[1] = biological target: biotinylated DENND1A.V2 specific 21 amino acid peptide … (Biotin-CH22) (human); test: QC phage ELISA-1, helper phage control, coating Biotin-CH22
[2] = biological target: biotinylated DENND1A.V2 specific 21 amino acid peptide … (Biotin-CH22) (human); test: QC phage ELISA-2, helper phage control, coating Biotin-CH22
[3] = biological target: T1, biotinylated DENND1A.V2 specific 21 amino acid peptide QKSITHFAAKFPTRGWTSSSH (Biotin-CH22) (human, biotinylated (position not given)); test: ELISA (FIG. 11C)
T1 construct: Immobilised on streptavidin pre-coated plates; The label CH22 is not explained; also called Bio-CH-22; bio-peptide
T1 peptide: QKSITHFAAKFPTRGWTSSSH

M13KO7 helper phage was tested. Which phage ELISA signal [1] did it give?
Its phage ELISA signal is 0.477.

What about the phage ELISA signal [2] of the same molecule?
Its phage ELISA signal is 0.533.

B1: human recombinant DENND1A.V2 specific IgG1 (V2 hmAB) (antibody, V domains shown)
VH: EVQLLESGGGLVQPGGSLRLSCAASGFTFSSYAMSWVRQAPGKGLEWVSIIGTDGDDTNYADSVKGRFTISRDNSKNTLYLQMNSLRAEDTAVYYCAKAEASFDYWGQGTLVTVSS
VL: DIQMTQSPSSLSASVGDRVTITCRASQSISSYLNWYQQKPGKAPKLLIYGASDLQSGVPSRFSGSGSGTDFTLTISSLQPEDFATYYCQQYDSAPSTFGQGTKVEIKR
notes: Expressed in 293E cells, Protein A purified; also called humanized monoclonal antibody; recombinant DENND1A.V2 IgG1
Does B1 bind [3]?
Result: binds
